The values that follow come from article PMC8715119, “Second-generation non-hematopoietic erythropoietin-derived peptide for neuroprotection” (Redox Biology, 2021).

One series deals with ERK. Kind of series: Time-series immunoblot of phosphorylated ERK. In kind it is cell-based, rat. The conditions noted are these: PC12 cells; 1 nM; peak at 15 min, below basal at 30 min, then recovery; n = 3. The method, then:
(§1) PC12 or HT-22 cells were lysed in 100 mM Tris-Cl (pH 6.8) with 4% SDS. The lysates were loaded onto sodium dodecyl sulfate-polyacrylamide gel electrophoresis (SDS-PAGE) (8–10%), and the proteins were transferred onto the nitrocellulose membrane. The membrane was blocked with 0.1% TBST and 5% non-fat dry milk at 25°C for 30 min. Primary antibodies were diluted in 0.1% TBST and 3% bovine serum albumin (BSA). The primary antibodies included anti-pJAK2 (#3776, Cell Signaling Technology, USA), anti-JAK2 (#3230, Cell Signaling Technology, USA), anti-pSTAT5 (#9351, Cell Signaling Technology, USA), anti-STAT5 ([…], Cell Signaling Technology, USA), anti-pAKT (#9271, Cell Signaling Technology, USA), anti-AKT (#9272, Cell Signaling Technology, USA), anti-pERK (#9101, Cell Signaling Technology, USA) anti-ERK (#9102, Cell Signaling Technology, USA), anti-EPOR (#sc-365662, Santa Cruz Biotechnology, USA), anti-β-Actin (Santa Cruz Biotechnology, USA), anti-Bax (Santa Cruz Biotechnology, USA), anti-cleaved Casp3 (Cell Signaling Technology, USA), and anti-cleaved Parp1 (Cell Signaling Technology, USA).
(In general: A western blot detects proteins with antibodies after separation by electrophoresis.)

The next series has as its system male mice (C57BL/6 N). Kind of series: Measurement of the hematopoietic effect after repeated subcutaneous injection. In kind it is in vivo. The conditions noted are these: mouse, three times a week for four weeks, reEPO 150 IU/kg, ML1-h3 0.2 mg/kg. As to the method:
The protocol of this experiment was approved by the Animal Care and Use Committee of the DGIST (DGIST-IACUC-21090804-0000). After two weeks for quarantine and acclimatization, male mice (C57BL/6 N, Koatech, Korea) were subcutaneously injected with vehicle (n = 6), reEPO (n = 6, 150 IU/kg), or ML1-h3 (n = 6, 0.2 mg/kg) three times a week for four weeks. After three days of final injection, they were anesthetized by injection of zoletil (50 mg/kg), and their blood was gathered from posterior vena cava into an EDTA-coated tube (#367863, BD Vacutainer, USA) using a syringe. The blood samples were analyzed by an automatic hematology analyzer (#ADIVIA 2120i, SIEMENS Healthineers, Germany) in DGMIF (Korea).

Series [1] has as its system HT-22 cells. Kind of series: TUNEL assay after hypoxia and re-oxygenation. The class given is cell-based, mouse. The conditions noted are these: hypoxia 18 h, re-oxygenation 3 h; reEPO 0.5 IU/ml, ML1-h3 1 ng/ml; n = 5. The method, then: (§2) HT-22 cells (kindly provided by Prof. Gil-Saeng Jeong in Keimyung University), an immortalized mouse hippocampal cell line, were cultured at 37°C and 5% CO2 in Dulbecco's modified eagle medium (DMEM, Invitrogen, USA) supplemented with 10% FBS and 1% penicillin/streptomycin at 37°C and 5% CO2.
The HT-22 cells were seeded onto 96-well or 6-well plates. The next day, HT-22 cells were placed inside a sealed air-tight container consisting of an anaeropack (Mitsubishi Gas Company, Tokyo, Japan), which can induce a hypoxic atmosphere by absorbing oxygen and generating carbon dioxide. The cells were maintained in the hypoxic condition at 37°C for 18 h and re-oxygenated for 3 h at 37°C and 5% CO2. Subsequently, the cells were treated with reEPO or the peptides for 19 h before viability analysis.
We fixed the cells with 4% paraformaldehyde in PBS on a slide at 25°C, washed them with PBS, and then treated them with 3% H2O2 in methanol for 10 min. After washing with PBS, we treated the cells with 0.1% sodium citrate in 0.1% Triton X-100 on sample slides for 2 min on ice and washed again with PBS. Subsequently, we treated the cells with the TUNEL reaction mixture for 60 min at 37°C in the dark. After washing thrice with PBS, 50 μl of TUNEL peroxidase (POD) was added to the slides for 30 min at 37°C in the dark. […]

In series [2] the test system is HT-22 cells. Kind of series: Cell viability after hypoxia and re-oxygenation. In kind it is cell-based, mouse. The conditions noted are these: hypoxia 18 h, re-oxygenation 3 h, treatment 19 h; reEPO 0.5 IU/ml, ML1-h3 1 ng/ml; n = 12. The method, then: as §2
Cell viability was evaluated by 3-[(4,5-dimethylthiazol-2-yl)-5,3-carboxymethoxyphenyl]-2-(4-sulfophenyl)-2H tetrazolium, inner salt (MTS) reduction assay (CellTiter 96 Aqueous One Solution Cell Proliferation Assay, Promega, Madison, WI, USA). Briefly, differentiated neuronal-PC12 cells were treated with H2O2 (300 μM) with or without reEPO and peptides for 24 h. The PC12 cells were washed with PBS; 20 ul MTS solution was added to each well with 100 μl PBS, and the cells were incubated for 3 h at 37°C and 5% CO2. The intracellular soluble formazan produced by cellular reduction of the MTS was determined by recording the absorbance at 490 nm using a microplate reader (VersaMax, Molecular Devices, USA). Cell proliferation was also evaluated by the MTS assay. Undifferentiated PC12 cells were seeded into a 96-well plate (5x10^4 cells/well). The next day, the initial cell number was counted; after 48 h, under low FBS concentration (0.5%), with or without reEPO and peptides, cell number was measured by the MTS assay.
The HT-22 cells were seeded onto 96-well or 6-well plates. […]

The test system of the next series is EPOR. Kind of series: Time-series immunoblot of EPOR protein level. The conditions noted are these: PC12 cells; 1 nM; normalized by β-Actin; n = 3. In kind it is cell-based, rat. As to the method:
as §1

The next series relates to JAK2. Kind of series: Time-series immunoblot of phosphorylated JAK2. The class given is cell-based, rat. The conditions noted are these: undifferentiated PC12 cells; 1 nM; up to 90 min; normalized by JAK2; n = 3. As to the method: as §1
A further series concerns cleaved Parp1. Kind of series: Immunoblot of cleaved Parp1 after hypoxia and re-oxygenation. The class given is cell-based, mouse. The conditions noted are these: HT-22 cells; reEPO 0.5 IU/ml, ML1-h3 1 ng/ml; normalized by β-Actin; n = 6. The method, then: as §1
The HT-22 cells were seeded onto 96-well or 6-well plates. The next day, HT-22 cells were placed inside a sealed air-tight container consisting of an anaeropack (Mitsubishi Gas Company, Tokyo, Japan), which can induce a hypoxic atmosphere by absorbing oxygen and generating carbon dioxide. […]

For “reEPO: Recombinant human EPO (Epoetin-α, CJ HealthCare Corporation)”, the “Level of phosphorylated ERK (pERK) over time” value with ERK was “acutely increased the level of phosphorylated ERK”. The Body weight entry with male mice (C57BL/6 N) (n = 6) is given as “No significant difference”. In the series with male mice (C57BL/6 N) (n = 6, versus vehicle), the “Cell number of platelet” value was “did not significantly affect”, the Content of haemoglobin entry is recorded as “dramatically increased”, the Hematocrit level result is recorded as “dramatically increased” and the Number of erythrocytes entry was “dramatically increased”. Besides, in the series on male mice (C57BL/6 N) (n = 6, versus vehicle), the “Number of granulocytes, including neutrophils and eosinophils” value is given as “considerably decreased”; the Number of lymphocytes entry is reported as “did not significantly affect”; the Number of monocytes entry is recorded as “did not significantly affect”; the Number of reticulocytes result is given as “dramatically increased”. Besides, the “Total number of white blood cells” value in the series with male mice (C57BL/6 N) (n = 6, versus vehicle) was “did not significantly affect”. Moreover, in the series on HT-22 cells [1], the “TUNEL-positive cells under H/R” value is given as “dramatically decreased the TUNEL-positive cells”. Moreover, the “Cell viability under H/R” value in the series on HT-22 cells [2] was “suppressed the loss of cell viability”. For the same substance, the “Level of EPOR protein over time” value with EPOR is “gradually decreased by reEPO for 15–45 min, and subsequently, it rapidly recovered to the basal level at 60 min”. The “Level of phosphorylated JAK2 (pJAK2) over time” value in the series with JAK2 is “upregulated the level of phosphorylated JAK2 in ^1007/1008Tyr (pJAK2), an active form of JAK2 at 30–60 min; pJAK2 returned to the basal level at 90 min”. In addition, the “Level of cleaved Parp1 under H/R” value with cleaved Parp1 was “efficiently reduced the levels of Bax, cleaved Caspase 3, and cleaved Parp1”.
